The target of test [1] is T1, Human IL-33-his (human, UniProt O95760 112-270, biotinylated with EZ-Link NHS-Biotin where used as IL-33-his-biotin).
T1 construct: Used plain (SPR, cell assays) and biotinylated (ELISA); also called IL-33-his-biotin
T1 sequence: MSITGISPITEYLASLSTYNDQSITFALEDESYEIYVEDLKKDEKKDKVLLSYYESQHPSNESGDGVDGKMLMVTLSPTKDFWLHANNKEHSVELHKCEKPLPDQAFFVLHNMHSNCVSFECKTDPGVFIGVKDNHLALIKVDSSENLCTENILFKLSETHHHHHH
Description: competition ELISA, antibody mixed with IL-33-his-biotin, ST2 on plate; competitor ST2. The protocol: ST2 is the only receptor for IL-33 that has been discovered so far. As a cytokine, IL-33 exerts its physiological function depending on ST2 signaling pathway, and the blocking activity of antibody can reflect the neutralizing activity thereof. The specific method was as follows: the plate was coated with 2 μg/ml ST2 PBS solution at 4° C. overnight; the plate was washed with PBST for 3 times, then the plated was blocked with 5% skim milk powder at 37° C. for 2 hours; the plate was washed with PBST for 3 times for later use. 20 ng/ml IL-33-his-biotin antigen diluted by 1% BSA was mixed with antibodies to be tested diluted by gradient with 1% BSA at 1:1 equal volume and incubated at 37° C. for […]. The mixture was added to a pre-coated ST2 plate and incubated at 37° C. for 1 h. The plate was washed with PBST for 3 times. HRP-labeled streptavidin secondary antibody was added at 1:8000 and incubated at 37° C. for 0.5 hours. After washing the plate with PBST for 3 times, the plate was patted on the absorbent paper to remove residual droplets as far as possible. 100 μl TMB was added to each well, and the plate was placed at room temperature (20±5° C.) for 5 minutes away from light; 50 μl 2M H₂SO₄ terminating solution was added to each well to terminate the substrate reaction. OD values were read at 450 nm on the microplate reader.
On the technique in general: An ELISA detects its analyte on a solid surface through an enzyme-linked reagent.

The target of test [2] is T1, Human IL-33-his. Description: competition ELISA as Example 10, ST2-Fc on plate; competitor ST2-Fc. The protocol:
ST2-Fc protein was diluted to 1 μg/mL with ELISA coating solution to coat ELISA plate with 100 μL/well. The plate was placed in a wet box at 4° C. for 16 h for coating. The ELISA plate was washed 3 times with PBST, and then was blocked with 2% BSA prepared in PBS at 200 μL/well at room temperature for 2 h. The plate was washed once with PBST, and was patted dry to remove the excess blocking solution. Each monoclonal antibody was diluted with 1% BSA prepared in PBST in a 3-fold gradient. The highest concentration of antibody was 10 μg/mL, and the antibody was diluted for 11 gradients. The diluted antibody was mixed 1:1 with 10 ng/ml IL-33-his-biotin, and then the mixture was added into the ELISA well at 100 μL/well. The plate was incubated at room temperature for 1 h. Each concentration was added to duplicate wells in parallel (maximum final concentration of antibody was […], final concentration of IL-33-his-biotin was 5 ng/mL). Unbound or non-specifically bound primary antibodies were washed out. According to the instructions of the antibody, HRP labeled streptavidin secondary antibody was diluted to an appropriate concentration with antibody diluent solution, then it was added to ELISA plate with 100 μL/well, and was incubated at room temperature for 1 h. The ELISA plate was washed with PBST for 5 times, and was patted dry on absorbent paper to remove excess liquid. TMB developing solution was added with 100 μL/well for development to an appropriate degree. 2M H₂SO₄ was added with 70 μL/well to terminate development, and the absorbance was measured at 450 nm on a multifunctional microplate reader. The data were analyzed.
The blocking effect of the above humanized antibodies on the binding of IL-33 to its receptor ST2 was determined by the ELISA method, and the relevant experimental methods were referred to Example 10.

For test [3], the target named is T2, IL-33 mutant protein P59A (human, UniProt O95760 112-270).
T2 construct: Prokaryotic expression
T2 chain: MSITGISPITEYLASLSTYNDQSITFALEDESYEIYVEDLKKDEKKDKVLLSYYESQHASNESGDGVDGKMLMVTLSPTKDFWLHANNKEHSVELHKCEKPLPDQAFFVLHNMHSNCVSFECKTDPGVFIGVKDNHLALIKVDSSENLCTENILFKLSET
Description: ELISA as Example 9; row P59A. The protocol: (§1) SA protein was diluted to 2 μg/mL to coat ELISA plate at 100 μL/well overnight at 4° C. The plate was washed with PBST (PBS containing 0.05% Tween20) for 3 times, and blocked with 2% BSA prepared in PBS at 200 μL/well, at room temperature for 2 h. After the plate was washed twice with PBST, IL-33-his-biotin protein was diluted to 1 μg/mL with 1% BSA prepared in PBST, and was added to ELISA plate at 100 μL/well. The plate was incubated at room temperature for 1 h, and each monoclonal antibody was diluted with 1% BSA prepared in PBST in a 3-fold gradient. The highest concentration of antibody was 10 μg/mL, and the antibody was diluted for 12 gradients. Each diluted monoclonal antibody was added to ELISA wells with 100 μL/well, and the plate was incubated at room temperature for 1 h. Each sample was added to duplicate wells in parallel. The plate was washed with PBST for 3 times, and HRP-anti human IgG Fc secondary antibody prepared with PBST was diluted at an appropriate ratio, and was added to ELISA wells at 100 μL/well. […] Each reaction solution was shaken uniformly and OD450 nm was read on a microplate reader. The data was analyzed and EC₅₀ was calculated.
(§2) Subsequently, according to the experimental method of Example 9, the affinity of the above mutant proteins to 874F7-Hu1 was determined, and IL-33 proteins (WT-1, WT-2, WT-3, and WT-4) without any mutation were set as controls.

For test [4], the target named is T3, IL-33 mutant protein S63A (human, UniProt O95760 112-270).
T3 construct: Prokaryotic expression
T3 chain: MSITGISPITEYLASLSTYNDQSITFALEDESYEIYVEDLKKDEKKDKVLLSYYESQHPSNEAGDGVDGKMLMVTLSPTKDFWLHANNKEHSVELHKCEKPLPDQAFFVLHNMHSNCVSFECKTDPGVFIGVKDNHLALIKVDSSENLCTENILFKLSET
The test can be described thus: ELISA as Example 9; row S63A against WT-3. The protocol: as §1, §2

As usually defined, the IC50 is the concentration at which inhibition is half-maximal. As a reminder, the EC50 is the concentration that produces a half-maximal response.

B1: 874F7 (antibody, V domains shown)
VH: QVQLKESGPGLVAPSHSLSITCNVSGFSLSKYGVHWIRQIPGRGLDWLGVLRAGGSTGYNSALMSRLSISKDSSKSQVFLKMNDLRTDDTAVYFCVRDHYYYSSYGGFVYWGQGTLVTVSA
VL: DIQMTQSPASQSASLGESVTITCLASQTIGAWLAWYRQQPGKSPQLLIYAATRLADGVPSRFSGSGSGTEFSFKINNLQAEDFVSYYCQQLDSSPYTFGGGTRLEM
notes: Murine hybridoma antibody purified on Protein G; also called murine antibody 874F7
In the test with Human IL-33-his [1], B1 gave an IC50 of 0.9 nM.

B2: 874F7-Hu1 (antibody, human IgG4 S228P, kappa)
heavy: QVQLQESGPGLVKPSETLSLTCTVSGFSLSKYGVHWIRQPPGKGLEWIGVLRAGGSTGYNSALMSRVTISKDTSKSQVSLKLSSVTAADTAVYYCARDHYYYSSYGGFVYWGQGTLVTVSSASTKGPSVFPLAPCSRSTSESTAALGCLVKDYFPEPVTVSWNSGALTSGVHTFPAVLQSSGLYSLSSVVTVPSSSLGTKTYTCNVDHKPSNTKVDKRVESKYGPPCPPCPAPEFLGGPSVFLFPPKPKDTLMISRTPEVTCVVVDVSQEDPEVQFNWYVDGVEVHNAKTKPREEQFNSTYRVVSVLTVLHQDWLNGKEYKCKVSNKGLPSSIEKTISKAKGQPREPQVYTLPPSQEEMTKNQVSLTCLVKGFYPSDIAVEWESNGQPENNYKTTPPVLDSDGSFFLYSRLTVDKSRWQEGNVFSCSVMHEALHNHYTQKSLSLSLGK
light: DIQMTQSPSSVSASVGDRVTITCLASQTIGAWLAWYQQKPGKSPKLLIYAATRLADGVPSRFSGSGSGTDFTLTISSLQPEDFATYYCQQLDSSPYTFGQGTKVEIKRTVAAPSVFIFPPSDEQLKSGTASVVCLLNNFYPREAKVQWKVDNALQSGNSQESVTEQDSKDSTYSLSSTLTLSKADYEKHKVYACEVTHQGLSSPVTKSFNRGEC
notes: also called 874F7-Hul; humanized antibody 874F7-Hu1
In turn, B2 yielded a half-maximal inhibitory concentration (IC50) with Human IL-33-his [2] of 0.451 nM. Further, the 50% effective concentration (EC50) in test [3] turned out to be 0.12 nM. Also, in test [4], the Affinity decline ratio was 0.9 fold.

These data come from US20230399394A1 (SUNSHINE GUOJIAN PHARMACEUTICAL SHANGHAI, published 2023).
